Results from patent publication US20230391891A1 (SYNTHEKINE, published 2023).

Key:
[1] = target: T1, extracellular domain of mIL10Rb (mouse, UniProt Q61190 20-220); assay: flow cytometry, cross-reactivity
T1 construct: also called mIL10Rb ECD; murine IL10Rb
T1 sequence: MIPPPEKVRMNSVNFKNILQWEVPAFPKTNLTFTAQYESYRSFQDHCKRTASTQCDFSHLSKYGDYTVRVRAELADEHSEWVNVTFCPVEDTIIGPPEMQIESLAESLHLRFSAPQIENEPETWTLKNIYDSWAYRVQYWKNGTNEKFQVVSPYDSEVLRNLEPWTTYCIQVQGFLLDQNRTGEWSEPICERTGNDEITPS

[2] = target: T2, extracellular domain of hIL10Rb (human, UniProt Q08334 20-220); assay: flow cytometry
T2 construct: also called hIL10Rb ECD; human IL10Rb
T2 sequence: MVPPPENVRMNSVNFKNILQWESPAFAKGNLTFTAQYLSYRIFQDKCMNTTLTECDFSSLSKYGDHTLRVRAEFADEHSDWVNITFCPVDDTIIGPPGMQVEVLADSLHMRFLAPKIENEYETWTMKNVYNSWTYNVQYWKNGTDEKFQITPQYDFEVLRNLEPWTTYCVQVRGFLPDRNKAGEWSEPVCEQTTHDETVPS

B1: hIL10Rb_VHH-3 (VHH)
VHH: QVQLQESGGGSVQAGGSLRLSCAASRYTYNSYCMGWFRQAPGKEREGVATIDSDGMTRYADSVKGRFTISKDNAKNTLYLQMNSLKPEDTAMYYCAADADCTIAAMTTNPLGQGTQVTVSS
notes: anti-hIL10Rb camel VHH
- binding result [1]: binds
- binding result [2]: binds

B2: hIL10Rb_VHH-27 (VHH)
VHH: QVQLQESGGGSVQTGGSLRLSCAASGYTYLRGCMGWFRQAPGKEREGVAVMDVVGDRRSYIDSVKGRFTISRDNAANSVYLQMDNLKPEDTAMYYCTAGPNCVGWRSGLDYWGQGTQVTVSS
notes: anti-hIL10Rb camel VHH
- binding result [2]: binds

B3: hIL10Rb_VHH-2 (VHH)
VHH: QVQLQESGGGSVQAGGSLRLSCAASGYTYSSYCMGWFRQAPGKEREGVAAIDSDGSTRYADSVKGRFTISKDNAKNTLYLQMNSLKPEDTAMYYCAAEPYCSGGYKRTMVAEFGYWGQGTQVTVSS
notes: anti-hIL10Rb camel VHH
- binding result [2]: binds

B4: hIL10Rb_VHH-8 (VHH)
VHH: QVQLQESGGGSVQAGGSLRLSCAASGYSYSSYCMGWFRQAPGKEREGVAAIASDGSTSYADSVKGRFAISKDNAKNTLYLQMASLKPEDTAMYYCAAEPWCTGGYSRLTPAEYGYWGQGTQVTVSS
notes: anti-hIL10Rb camel VHH
- binding result [2]: binds

B5: hIL10Rb_VHH-1 (VHH)
VHH: QVQLQESGGGSVQAGGSLRLSCAASGYTYSSGCMGWFRQAPGKEREAVAAINSDGSTSYADSVKGRFTISKDNAKNTLYLQMNSLKPEDTAMYYCAAEPYCSGGYPRWSVAEFGYWGQGTQVTVSS
notes: anti-hIL10Rb camel VHH
- binding result [2]: binds

B6: hIL10Rb_VHH-18 (VHH)
VHH: QVQLQESGGGSVQAGGSLRLSCAASGDTYSSYCMGWFRQAPGKEREGVAFIDSDGSTRYADSVEGRFTISKDNAKNTLYLQMNSLKPEDTAMYYCAAEPYCSGGYHRKEMAEFGYWGQGTQVTVSS
notes: anti-hIL10Rb camel VHH
- binding result [2]: binds

B7: hIL10Rb_VHH-23 (VHH)
VHH: QVQLQESGGGSVQAGGSLRLSCAASGYTYSSYCMGWFRQAPGKEREGVAAIDSDGSTRYADSVKGRFTISKDNAKKILYLQMNSLKVEDTAMYYCAAEPYCSGGYKRTMVAEFGFWGQGTQVTVSS
notes: anti-hIL10Rb camel VHH
- binding result [2]: binds

B8: hIL10Rb_VHH-11 (VHH)
VHH: QVQLQESGGGSVQAGGSLRLSCAASGYTYSSYCMGWFRQAPGKGREGVAAIDSDGSTRYADSVKGRFTISKDNAKNTLYLQMNSLKPEDTAMYYCAAEPYCSGGYKRTMVAEFGYWGQGTQVTVSS
notes: anti-hIL10Rb camel VHH
- binding result [2]: binds

B9: hIL10Rb_VHH-14 (VHH)
VHH: QVQLQESGGGSVQAGGSLRLSCAASGYTYSSGCMGWFRQAPGKEREGVATINSDGSTNYADSVKGRFTISKDNAKNTLYLQMNSLKPEDTGMYYCAAEPYCSGGYPRWSVAEFGYWGQGTQVTVSS
notes: anti-hIL10Rb camel VHH
- binding result [2]: binds

B10: hIL10Rb_VHH-9 (VHH)
VHH: QVQLQESGGGLVQPGGSLRLSCAASGYTYSSGCMGWFRQAPGKEREGVATINSDGSTNYADSVKGRFTISKDNAKNTLYLQMNSLKPEDTAMYYCAAEPYCSGGYPRWSVAEFGYWGQGTQVTVSS
notes: anti-hIL10Rb camel VHH
- binding result [2]: binds

B11: hIL10Rb_VHH-7 (VHH)
VHH: QVQLQESGGGSVQAGGSLRLSCAASGYTYSSGCMGWFRQAPGKEREGVATINSDGSTNYADSVKGRFTISKDNAKNTLYLQMNSLKPEDTAMYYCAAEPYCSGGYPRWSVAEFGYWGQGTQVTVSS
notes: anti-hIL10Rb camel VHH
- binding result [2]: binds

B12: hIL10Rb_VHH-26 (VHH)
VHH: QVQLQESGGGSVQAGGSLRLSCAASGYSYSSYCMGWFRQAPGKEREGVATIDSDGMTRYADSVKGRFTISKDNAKNTLYLQMNSLKPEDTAMYYCAAPLYDCDSGAVGRNPPYWGQGTQVTVSS
notes: anti-hIL10Rb camel VHH
- binding result [1]: binds
- binding result [2]: binds

B13: hIL10Rb_VHH-15 (VHH)
VHH: QVQLQESGGGSVQAGGSLRLSCTVSRYTASVNYMGWFRQAPGKEREGVATIFTGAGTTYYANSVKGRFTISRDNAKNTAYLQMNSLKPEDTAIYYCAVDFRGGLLYRPAYEYTYRGQGTQVTVSS
notes: anti-hIL10Rb camel VHH
- binding result [2]: binds

B14: hIL10Rb_VHH-17 (VHH)
VHH: QVQLQESGGGSVQAGGSLRLSCTVSRYTASVNYMGWFRQAPGKEREGVATIFTGAGTTYYANSVKGRFTISRDNAKNTAYLQMNSLKPEDTAMYYCAVDFRGGLLYRPAYEYTYRGQGTQVTVSS
notes: anti-hIL10Rb camel VHH
- binding result [2]: binds

B15: hIL10Rb_VHH-12 (VHH)
VHH: QVQLQESGGGSVQAGGSLRLSCAASGYTYSSYCMGWFRQAPGKEREGVAHIDSDGSTSYADSVKGRFTISKDNAKNTLYLQMNSLKPEDTAMYYCAADPIPGPGYCDGGPNKYWGQGTQVTVSS
notes: anti-hIL10Rb camel VHH
- binding result [1]: binds
- binding result [2]: binds

B16: hIL10Rb_VHH-25 (VHH)
VHH: QVQLQESGGGSVQAGGSLRLSCAASGYTYSSYCMGWFRQAPGKEREGIAHIDSDGSTTYADSVKGRFTISKDNAKNTLYLQMNSLKPEDTAMYYCAADPIPGPGYCDGGPNNYWGQGTQVTVSS
notes: anti-hIL10Rb camel VHH
- binding result [1]: binds
- binding result [2]: binds

B17: hIL10Rb_VHH-22 (VHH)
VHH: QVQLQESGGGSVQAGGSLRLSCAASGYTDSRYCMGWFRKAPGKEREGVAHIDSDGSTSYADSVKGRFTISKDNAKNTLYLQMNSLKPEDTAMYYCAADPIPGPGYCDGGPNKYWGQGTQVTVSS
notes: anti-hIL10Rb camel VHH
- binding result [1]: binds
- binding result [2]: binds

B18: hIL10Rb_VHH-10 (VHH)
VHH: QVQLQESGGGLVQPGGSLRLSCAASGYTYSSYCMGWFRQAPGKEREGVAHIDSDGSTTYADSVKGRFAISKDNAKNTLYLQMNSLKPEDTAMYYCAADPIPGPGYCDGGPNKYWGQGTQVTVSS
notes: anti-hIL10Rb camel VHH
- binding result [1]: binds
- binding result [2]: binds

B19: hIL10Rb_VHH-5 (VHH)
VHH: QVQLQESGGGLVQPGGSLRLSCAASGYTYSSYCMGWFRQAPGKEREGVAHIDSDGSTTYADSVKGRFTISKDNAKNTLYLQMNSLKPEDTAMYYCAADPIPGPGYCDGGPNKYWGQGTQVTVSS
notes: anti-hIL10Rb camel VHH
- binding result [2]: binds

B20: hIL10Rb_VHH-13 (VHH)
VHH: QVQLQESGGGSVQAGGSLRLSCAASGYTYSSYCMGWFRQAPGKEREGVAHIDSDGSTSYADSVKGRFTISKDNAKNTLYLQMNSLKPEDTAMYYCAADPIPGPGYCDGGPNNYWGQGTQVTVSS
notes: anti-hIL10Rb camel VHH
- binding result [1]: binds
- binding result [2]: binds

B21: hIL10Rb_VHH-24 (VHH)
VHH: QVQLQESGGGSVQAGGSLKLSCAASGYTYSSYCMGWFRQAPGKEREGVAHIDSDGSTTYADSVKGRFTISKDNAKNTLYLQMNSLKPEDTAMYYCAADPIPGPGYCDGGPNNYWGQGTQVTVSS
notes: anti-hIL10Rb camel VHH
- binding result [1]: binds
- binding result [2]: binds

B22: hIL10Rb_VHH-19 (VHH)
VHH: QVQLQESGGGSVQAGGSLRLSCAASGYTYSSYCMGWFRQAPGKEREGVAHIDSDGSTSYADSVKGRFTISKDNAKNTLYLQMNSLKPEDTAMYYCAADPIPGPGYCDGGPNKYRGQGTQVTVSS
notes: anti-hIL10Rb camel VHH
- binding result [1]: binds
- binding result [2]: binds

B23: hIL10Rb_VHH-20 (VHH)
VHH: QVQLQESGGGSVQAGGSLRLSCAASGYTYSSYCMGWFRQAPGKEREGVAHIDSDGSTTYADSVKGRFAISKDNAKNTLYLQMNSLKPEDTAMYYCAADPIPGPGYCDGGPNKYWGQGTQVTVSS
notes: anti-hIL10Rb camel VHH
- binding result [1]: binds
- binding result [2]: binds

B24: hIL10Rb_VHH-16 (VHH)
VHH: QVQLQESGGGSVEAGGSLRLSCAASGYTHSSYCMGWFRQAPGKEREGVAAIDVDGSTTYADSVKGRFTISKDNAKNTLYLQMNSLKPEDTGMYYCAAEFADCSSNYFLPPGAVRYWGQGTQVTVSS
notes: anti-hIL10Rb camel VHH
- binding result [1]: binds
- binding result [2]: binds

B25: hIL10Rb_VHH-4 (VHH)
VHH: QVQLQESGGGSIQAGGSLRLSCAASRYLYSIDYMAWFRQSPGKEREPVAVIYTASGATFYPDSVKGRFTISQDNAKMTVYLQMNSLKSEDTAMYYCAAVRKTDSYLFDAQSFTYWGQGTQVTVSS
notes: anti-hIL10Rb camel VHH
- binding result [1]: binds
- binding result [2]: binds

B26: hIL10Rb_VHH-6 (VHH)
VHH: QVQLQESGGGSIQAGGSLTLSCAASRDLYSTNYVAWFRQSPGKEREAVAVIYTASGATLYSDSVKGRFTISQDNAKMTVYLQMNSLKSEDTAMYYCAAVRKTGHYLFDAQSFTYWGQGTQVTVSS
notes: anti-hIL10Rb camel VHH
- binding result [1]: binds
- binding result [2]: binds
